# In patent publication US20180038858A1:
# What was measured:
# CCR7 (human) = CCR7 (human) (UniProt P32248); test: cell-based or functional assay
# hCXCR1 (human) = hCXCR1 (human) (UniProt P25024); test: cell-based or functional assay
# [1] = target: CCR1, 3 and 5-expressing cells (chemokine receptor-expressing cells) (human); test: blood of a healthy donor passed through a column of biotinylated RANTES coupled streptavidin matrix; flow cytometry before and after
# Sequence of hCXCR1 (human) (P25024 whole entry): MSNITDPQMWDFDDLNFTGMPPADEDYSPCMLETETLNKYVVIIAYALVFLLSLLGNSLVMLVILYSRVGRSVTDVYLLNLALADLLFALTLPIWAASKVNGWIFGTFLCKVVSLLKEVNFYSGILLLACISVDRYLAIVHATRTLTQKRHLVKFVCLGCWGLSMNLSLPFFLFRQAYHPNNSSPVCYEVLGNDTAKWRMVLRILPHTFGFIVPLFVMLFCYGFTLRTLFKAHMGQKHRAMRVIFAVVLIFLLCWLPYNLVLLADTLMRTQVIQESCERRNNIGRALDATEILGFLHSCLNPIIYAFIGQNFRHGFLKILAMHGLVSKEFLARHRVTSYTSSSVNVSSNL
# Sequence of CCR7 (human) (P32248 25-378): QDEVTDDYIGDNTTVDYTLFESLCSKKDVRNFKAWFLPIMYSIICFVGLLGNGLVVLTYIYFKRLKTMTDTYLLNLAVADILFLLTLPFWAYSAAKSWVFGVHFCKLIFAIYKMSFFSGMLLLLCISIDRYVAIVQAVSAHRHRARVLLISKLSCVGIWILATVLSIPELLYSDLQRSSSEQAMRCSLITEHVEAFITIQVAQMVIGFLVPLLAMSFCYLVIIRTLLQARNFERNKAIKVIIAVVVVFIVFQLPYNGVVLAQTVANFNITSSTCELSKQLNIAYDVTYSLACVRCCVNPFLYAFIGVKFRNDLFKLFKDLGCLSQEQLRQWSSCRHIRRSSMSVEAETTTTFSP
# Sequence of biotinRANTES (CCL5), RANTES derivatised at Lys(67) with Biotin (P13501 other isoform, or with tags, fused parts or gaps): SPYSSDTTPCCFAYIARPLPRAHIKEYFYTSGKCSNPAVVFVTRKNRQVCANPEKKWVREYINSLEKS
"EC50, agonist activity in an Aequorin assay (hCXCR1 (human)) [nM]",Substance,other results
,recombinant native MIP-3β (from UniProt Q99731 22-98) (ligand),"EC50, agonist activity in an Aequorin assay (CCR7 (human)): 1.6 nM"
4.2,recombinant native IL-8 (from UniProt P10145 28-99) (ligand),
6.1,"biotinIL-8 (6-78), IL-8 (6-78) derivatised at Lys(78) with PEG-Biotin (from UniProt P10145 28-99) (ligand)",
,"biotinRANTES (CCL5), RANTES derivatised at Lys(67) with Biotin (from UniProt P13501 24-91) (ligand)",reduction of chemokine receptor-expressing cells by the column [1]: 20%
